For one data set, the target named is PSA (PSA standard) (UniProt P07288 25-261). The data set is described as follows: electrochemical aptasensor (DPV); 1 ng/mL; current below blank, attributed to physical adsorption; PBS as solvent, 100 uL sample; DPV -0.6 to 0 V, peak about -0.4 V; BSA-blocked electrode; pH, salt and assay temperature not stated. As to conditions: protein: commercial.
Data set [1] deals with B-type brain natriuretic peptide (BNP) (UniProt P16860 103-134). Described as above. Conditions: protein: commercial.
A further data set addresses T1, C-reactive protein (CRP) (UniProt P02741 19-224).
T1 sequence: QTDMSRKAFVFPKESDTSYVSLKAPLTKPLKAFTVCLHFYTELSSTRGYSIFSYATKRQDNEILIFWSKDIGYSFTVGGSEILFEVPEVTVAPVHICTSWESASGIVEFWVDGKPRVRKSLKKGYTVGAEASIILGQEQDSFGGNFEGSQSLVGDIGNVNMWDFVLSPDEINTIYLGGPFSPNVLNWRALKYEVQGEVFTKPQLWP
The data set is described as follows: electrochemical aptasensor (DPV); 1 ng/mL CRP; aptamer immobilized on SPE/AuNPs/GO-COOH, BSA-blocked; linear range 0.001-100 ng/mL, LOD 2.941e-4 ng/mL; PBS as solvent, 100 uL sample; DPV -0.6 to 0 V, peak about -0.4 V; BSA-blocked electrode; pH, salt and assay temperature not stated. As to conditions: protein: commercial; chain copies: 5.

PSA (PSA standard), sequence (P07288 25-261): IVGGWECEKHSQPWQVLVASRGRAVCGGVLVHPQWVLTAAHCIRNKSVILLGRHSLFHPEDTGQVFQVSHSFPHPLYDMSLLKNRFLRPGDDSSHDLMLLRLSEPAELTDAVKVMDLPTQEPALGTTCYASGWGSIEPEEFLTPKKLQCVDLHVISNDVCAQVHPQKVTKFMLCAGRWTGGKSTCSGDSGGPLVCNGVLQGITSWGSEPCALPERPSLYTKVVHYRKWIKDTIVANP
B-type brain natriuretic peptide (BNP), sequence (P16860 103-134): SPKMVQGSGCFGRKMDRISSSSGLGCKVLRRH

For GCCTGTAAGGTGGTCGGTGTGGCGAGTGTGTTAGGAGAGATTGC (ssDNA, 5'-NH2) [CRP aptamer], the binding result is “no binding” with PSA (PSA standard), “no binding” in data set [1] and “binds” with C-reactive protein (CRP).

The record behind these values is PMC9775280, “A Simple Label-Free Aptamer-Based Electrochemical Biosensor for the Sensitive Detection of C-Reactive Proteins”.
